Results reported in WO2000069914A2.

Biological target: recombinant Epithelial Glycoprotein-2 (EGP-2), baculovirus-expressed, purified (human) (UniProt P16422)
Assay: SPR (BIAcore), scFv over amine-coupled recombinant EGP-2

UniProt P16422, sequence (P16422 24-265 limits assumed): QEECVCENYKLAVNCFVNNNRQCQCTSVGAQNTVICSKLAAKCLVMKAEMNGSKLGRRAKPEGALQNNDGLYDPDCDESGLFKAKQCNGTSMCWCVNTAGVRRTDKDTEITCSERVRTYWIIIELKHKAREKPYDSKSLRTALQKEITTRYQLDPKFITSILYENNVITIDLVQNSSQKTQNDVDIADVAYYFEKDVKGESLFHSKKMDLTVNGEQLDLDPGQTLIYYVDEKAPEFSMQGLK

koff: 0.00034 s⁻¹
Substance: scFv MOC-31
